Here are results for 54 molecules from article PMC314469, “Protein Interaction Networks by Proteome Peptide Scanning” (PLoS Biology, 2004).

The labels stand for the following.
T1: Abp1 SH3 (ABP1_YEAST), P15891
T1 chain: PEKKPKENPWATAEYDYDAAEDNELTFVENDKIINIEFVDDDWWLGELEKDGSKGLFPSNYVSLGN

The target in this assay is T1, Abp1 SH3 (ABP1_YEAST), P15891. Kind of assay: SPOT array.
For the molecule MKHFFRLPTAFRP [YHR120W 1-13], the normalised SPOT signal, Boehringer light units (BLU); mean over the file's lines of this peptide was found to be 538.
LWSWVLGPLLSRP [YOL110W 177-189]: the normalised SPOT signal, Boehringer light units (BLU); mean over the file's lines of this peptide was found to be 120.
MQLGSLVPSSLKP [YLR413W 258-270] returned a normalised SPOT signal, Boehringer light units (BLU); mean over the file's lines of this peptide of 3590.
In turn, MKTTDTYPSLPKP [YMR205C 179-191] displayed a normalised SPOT signal, Boehringer light units (BLU); mean over the file's lines of this peptide of 97.9.
With MEVGGVRNYVPQKP [YKL095W 108-121], the normalised SPOT signal, Boehringer light units (BLU); mean over the file's lines of this peptide was found to be 68.
As for MRSNPQQPPQDKP [YPL204W 475-487], the normalised SPOT signal, Boehringer light units (BLU); mean over the file's lines of this peptide amounted to 264.
MEEPFIWPEEPRP [YDR405W 164-176] came in with a normalised SPOT signal, Boehringer light units (BLU); mean over the file's lines of this peptide of 184.
The molecule MGARNVQPTMFKP [YDL164C 244-256] displayed a normalised SPOT signal, Boehringer light units (BLU); mean over the file's lines of this peptide of 6660.
To MAKEDTGVTAPKKP [YOR086C 1-14] belongs 119.
Consider MAKSQNKPKREKP [YDR381W 195-207], for which the normalised SPOT signal, Boehringer light units (BLU); mean over the file's lines of this peptide stood at 2220.
Consider LWQYVTDPSYKKP [YBR241C 284-296], for which the normalised SPOT signal, Boehringer light units (BLU); mean over the file's lines of this peptide amounted to 48.4.
With LWQRKKLGEAPIKP [YLR129W 775-788], the normalised SPOT signal, Boehringer light units (BLU); mean over the file's lines of this peptide turned out to be 29.7.
NDRNNADPEKKKP [YDR457W 2434-2446] yielded a normalised SPOT signal, Boehringer light units (BLU); mean over the file's lines of this peptide of 206.
NATGKHFPKYFRP [YLR307W 189-201]: the normalised SPOT signal, Boehringer light units (BLU); mean over the file's lines of this peptide stood at 146.
The same measure for MNPKSSTPKIPRP [YPR065W 1-13]: 1070; for MTSNNLPPGKRKP [YBR222C 343-355]: 4880.
Regarding LYPQGYDPTDPSRP [YDR093W 1465-1478], the normalised SPOT signal, Boehringer light units (BLU); mean over the file's lines of this peptide came to 57.7.
LWALLQSGRLPQRP [YDR147W 440-453] returned a normalised SPOT signal, Boehringer light units (BLU); mean over the file's lines of this peptide of 322.
As for MARGSHFPILNRP [YNL013C 89-101], the normalised SPOT signal, Boehringer light units (BLU); mean over the file's lines of this peptide amounted to 2480.
Molecule NGEEAEEVVVPEKP [YJL214W 46-59] came in with a normalised SPOT signal, Boehringer light units (BLU); mean over the file's lines of this peptide of 539.
With LYMDKFIKLIPMRP [YDR479C 283-296], the normalised SPOT signal, Boehringer light units (BLU); mean over the file's lines of this peptide is 4270.
Turning to MRSHMEQPQSIKP [YOR329C 457-469], the normalised SPOT signal, Boehringer light units (BLU); mean over the file's lines of this peptide was determined as 1740.
Molecule NDRFSHTPQQQRP [YNL263C 17-29] gave a normalised SPOT signal, Boehringer light units (BLU); mean over the file's lines of this peptide of 164.
MNDDRETPPKRKP [YAL026C 1-13]: the normalised SPOT signal, Boehringer light units (BLU); mean over the file's lines of this peptide is 6180.
The same measure for MSISSKIRPTPRKP [YER118C 1-14]: 2450.
With LVTPLAGGVTPMKP [YAL054C 478-491], the normalised SPOT signal, Boehringer light units (BLU); mean over the file's lines of this peptide is 93.7.
Molecule MQDYRPSPQSARP [YLL043W 81-93] displayed a normalised SPOT signal, Boehringer light units (BLU); mean over the file's lines of this peptide of 310.
In turn, MDDFVTPPDEVKP [YBR023C 712-724] showed a normalised SPOT signal, Boehringer light units (BLU); mean over the file's lines of this peptide of 40.3.
MIEPAYRNGGPVKP [YOR093C 939-952]: the normalised SPOT signal, Boehringer light units (BLU); mean over the file's lines of this peptide was 63.4.
For MPQNQGFPPQFKP [YCL037C 234-246], the normalised SPOT signal, Boehringer light units (BLU); mean over the file's lines of this peptide came out at 308.
To LWTNDDYLQQPARP [YER136W 199-212] belongs 30.
NATGNHTPKWFRP [YLR308W 199-211]: the normalised SPOT signal, Boehringer light units (BLU); mean over the file's lines of this peptide worked out at 100.
To MTAAKPNPYAAKP [YDL182W 1-13] belongs 2430.
The molecule MTPGASANALPPKP [YDL195W 796-809] displayed a normalised SPOT signal, Boehringer light units (BLU); mean over the file's lines of this peptide of 91.9.
For the molecule MFARLANPAHFKP [YOR226C 1-13], the normalised SPOT signal, Boehringer light units (BLU); mean over the file's lines of this peptide was determined as 2660.
MSELHALLTFPERP [YDR465C 1-14]: the normalised SPOT signal, Boehringer light units (BLU); mean over the file's lines of this peptide is 18.5.
To NESFSLPPPQPKP [YFL044C 78-90] belongs 61.2; to LYEQFRNPLRSRP [YDR389W 229-241], 950.
To NDEEIKKPTDGKP [YMR012W 785-797] belongs 33.6; to LVDPKVDPILLRP [YBL069W 153-165], 137; to MDTMANILYYPQKP [YOR151C 789-802], 117.
NEDELDSPVQKKP [YKR086W 102-114] came in with a normalised SPOT signal, Boehringer light units (BLU); mean over the file's lines of this peptide of 54.4.
Take NESAPLQPFPERP [YFL041W 455-467]: the normalised SPOT signal, Boehringer light units (BLU); mean over the file's lines of this peptide came out at 26.2.
Turning to NSVDRHAFANPDKP [YLR153C 95-108], the normalised SPOT signal, Boehringer light units (BLU); mean over the file's lines of this peptide is 103.
With NEYKGLITIIPSKP [YOL152W 549-562], the normalised SPOT signal, Boehringer light units (BLU); mean over the file's lines of this peptide is 77.6.
For the molecule MSKLLKHGWKPLRP [YJR126C 471-484], the normalised SPOT signal, Boehringer light units (BLU); mean over the file's lines of this peptide is 267.
Molecule NESPRNVPIMVKP [YLL043W 210-222] had a normalised SPOT signal, Boehringer light units (BLU); mean over the file's lines of this peptide of 217.
Turning to LVSATAVPAESKP [YPL074W 405-417], the normalised SPOT signal, Boehringer light units (BLU); mean over the file's lines of this peptide came out at 25.
To MNIRPSISMRPIKP [YNL105W 40-53] belongs 9140; to LVFELDENLKPSKP [YKL152C 212-225], 105; to NFEVSHKPTVEKP [YPL095C 323-335], 185.
NEAAKPSFSFPGKP [YOR098C 607-620]: the normalised SPOT signal, Boehringer light units (BLU); mean over the file's lines of this peptide was determined as 38.
The same measure for LYALVLKPVGKKP [YOR109W 19-31]: 109.
Consider MKLEGTYEKIPEKP [YAL024C 1062-1075], for which the normalised SPOT signal, Boehringer light units (BLU); mean over the file's lines of this peptide was 201.
